The supplement of paper PMC11316812
± gives the standard deviation of the averaged measurements.

Assays:
hTERT-HMEC = experiment: percentage of EdU-negative (G0-arrested) nuclei per well, 72 h; higher = more G0 arrest; settings: reference: sequence is the full UniProt precursor, the tested protein was the secreted form or ectodomain
MCF7 = experiment: as above; settings: reference: sequence is the full UniProt precursor, the tested protein was the secreted form or ectodomain
[1] = protein concentration 0.0145714 µM
[2] = protein concentration 0.145714 µM
[3] = protein concentration 0.0357143 µM
[4] = protein concentration 0.357143 µM
[5] = protein concentration 0.0225 µM
[6] = protein concentration 0.0182857 µM
[7] = protein concentration 0.182857 µM
[8] = protein concentration 0.025165 µM
[9] = protein concentration 0.25165 µM
[10] = protein concentration 0.03125 µM
[11] = protein concentration 0.3125 µM
[12] = protein concentration 0.02525 µM
[13] = protein concentration 0.2525 µM
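Also: secreted proteins added to cultured cells, EdU pulse at the end, nuclei found by Hoechst imaging, EdU status from nuclear versus surrounding ring intensity ratio, PBS as neutral control.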

Sequence: MNNLLCCALVFLDISIKWTTQETFPPKYLHYDEETSHQLLCDKCPPGTYLKQHCTAKWKTVCAPCPDHYYTDSWHTSDECLYCSPVCKELQYVKQECNRTHNRVCECKEGRYLEIEFCLKHRSCPPGFGVVQAGTPERNTVCKRCPDGFFSNETSSKAPCRKHTNCSVFGLLLTQKGNATHDNICSGNSESTQKCGIDVTLCEEAFFRFAVPTKFTPNWLSVLVDNLPGTKVNAESVERIKRQHSSQEQTFQLLKLWKHQNKDQDIVKKIIQDIDLCENSVQRHIGHANLTFEQLRSLMESLPGKKVGAEDIEKTIKACKPSDQILKLLSLWRIKNGDQDTLKGLMHALKHSKTYHFPKTVTQSLKKTIRFLHSFTMYKLYQKLFLEMIGNQVQSVKISCL
- percentage of EdU-negative (hTERT-HMEC; protein concentration 0.034 µM): 4.98 ± 0.78%
- percentage of EdU-negative (hTERT-HMEC; protein concentration 0.34 µM): 8.17 ± 0.14%
- percentage of EdU-negative (MCF7; protein concentration 0.034 µM): 22.2 ± 1.3%
- percentage of EdU-negative (MCF7; protein concentration 0.34 µM): 29.5 ± 1%

Sequence: MNPTLGLAIFLAVLLTVKGLLKPSFSPRNYKALSEVQGWKQRMAAKELARQNMDLGFKLLKKLAFYNPGRNIFLSPLSISTAFSMLCLGAQDSTLDEIKQGFNFRKMPEKDLHEGFHYIIHELTQKTQDLKLSIGNTLFIDQRLQPQRKFLEDAKNFYSAETILTNFQNLEMAQKQINDFISQKTHGKINNLIENIDPGTVMLLANYIFFRARWKHEFDPNVTKEEDFFLEKNSSVKVPMMFRSGIYQVGYDDKLSCTILEIPYQKNITAIFILPDEGKLKHLEKGLQVDTFSRWKTLLSRRVVDVSVPRLHMTGTFDLKKTLSYIGVSKIFEEHGDLTKIAPHRSLKVGEAVHKAELKMDERGTEGAAGTGAQTLPMETPLVVKIDKPYLLLIYSEKIPSVLFLGKIVNPIGK [Q8IW75]
- percentage of EdU-negative (hTERT-HMEC; [1]): 6.15 ± 0.62%
- percentage of EdU-negative (hTERT-HMEC; [2]): 15.6 ± 0.67%
- percentage of EdU-negative (MCF7; [1]): 26.6 ± 0.27%
- percentage of EdU-negative (MCF7; [2]): 29.1 ± 1.5%

Sequence: MNPTLILAAFCLGIASATLTFDHSLEAQWTKWKAMHNRLYGMNEEGWRRAVWEKNMKMIELHNQEYREGKHSFTMAMNAFGDMTSEEFRQVMNGFQNRKPRKGKVFQEPLFYEAPRSVDWREKGYVTPVKNQGQCGSCWAFSATGALEGQMFRKTGRLISLSEQNLVDCSGPQGNEGCNGGLMDYAFQYVQDNGGLDSEESYPYEATEESCKYNPKYSVANDTGFVDIPKQEKALMKAVATVGPISVAIDAGHESFLFYKEGIYFEPDCSSEDMDHGVLVVGYGFESTESDNNKYWLVKNSWGEEWGMGGYVKMAKDRRNHCGIASAASYPTV
- percentage of EdU-negative (hTERT-HMEC; [3]): 4.81 ± 0.59%
- percentage of EdU-negative (hTERT-HMEC; [4]): 5.42 ± 0.42%
- percentage of EdU-negative (MCF7; [3]): 27.8 ± 1.3%
- percentage of EdU-negative (MCF7; [4]): 24 ± 1.1%

Sequence: MNQKTILVLLILAVITIFALVCVLLVGRGGDGGEPSQLPHCPSVSPSAQPWTHPGQSQLFADLSREELTAVMRFLTQRLGPGLVDAAQARPSDNCVFSVELQLPPKAAALAHLDRGSPPPAREALAIVFFGRQPQPNVSELVVGPLPHPSYMRDVTVERHGGPLPYHRRPVLFQEYLDIDQMIFNRELPQASGLLHHCCFYKHRGRNLVTMTTAPRGLQSGDRATWFGLYYNISGAGFFLHHVGLELLVNHKALDPARWTIQKVFYQGRYYDSLAQLEAQFEAGLVNVVLIPDNGTGGSWSLKSPVPPGPAPPLQFYPQGPRFSVQGSRVASSLWTFSFGLGAFSGPRIFDVRFQGERLVYEISLQEALAIYGGNSPAAMTTRYVDGGFGMGKYTTPLTRGVDCPYLATYVDWHFLLESQAPKTIRDAFCVFEQNQGLPLRRHHSDLYSHYFGGLAETVLVVRSMSTLLNYDYVWDTVFHPSGAIEIRFYATGYISSAFLFGATGKYGNQVSEHTLGTVHTHSAHFKVDLDVAGLENWVWAEDMVFVPMAVPWSPEHQLQRLQVTRKLLEMEEQAAFLVGSATPRYLYLASNHSNKWGHPRGYRIQMLSFAGEPLPQNSSMARGFSWERYQLAVTQRKEEEPSSSSVFNQNDPWAPTVDFSDFINNETIAGKDLVAWVTAGFLHIPHAEDIPNTVTVGNGVGFFLRPYNFFDEDPSFYSADSIYFRGDQDAGACEVNPLACLPQAAACAPDLPAFSHGGFSHN
- percentage of EdU-negative (hTERT-HMEC; [1]): 5.32 ± 0.3%
- percentage of EdU-negative (hTERT-HMEC; [2]): 6.82 ± 0.15%
- percentage of EdU-negative (MCF7; [1]): 22.8 ± 0.3%
- percentage of EdU-negative (MCF7; [2]): 26.8 ± 0.78%

Sequence: MNQVTIQWDAVIALYILFSWCHGGITNINCSGHIWVEPATIFKMGMNISIYCQAAIKNCQPRKLHFYKNGIKERFQITRINKTTARLWYKNFLEPHASMYCTAECPKHFQETLICGKDISSGYPPDIPDEVTCVIYEYSGNMTCTWNAGKLTYIDTKYVVHVKSLETEEEQQYLTSSYINISTDSLQGGKKYLVWVQAANALGMEESKQLQIHLDDIVIPSAAVISRAETINATVPKTIIYWDSQTTIEKVSCEMRYKATTNQTWNVKEFDTNFTYVQQSEFYLEPNIKYVFQVRCQETGKRYWQPWSSLFFHKTPETVPQVTSKAFQHDTWNSGLTVASISTGHLTSDNRGDIGLLLGMIVFAVMLSILSLIGIFNRSFRTGIKRRILLLIPKWLYEDIPNMKNSNVVKMLQENSELMNNNSSEQVLYVDPMITEIKEIFIPEHKPTDYKKENTGPLETRDYPQNSLFDNTTVVYIPDLNTGYKPQISNFLPEGSHLSNNNEITSLTLKPPVDSLDSGNNPRLQKHPNFAFSVSSVNSLSNTIFLGELSLILNQGECSSPDIQNSVEEETTMLLENDSPSETIPEQTLLPDEFVSCLGIVNEELPSINTYFPQNILESHFNRISLLEK [Q5VWK5]
- percentage of EdU-negative (hTERT-HMEC; [5]): 6.46 ± 1.6%
- percentage of EdU-negative (hTERT-HMEC; protein concentration 0.225 µM): 15.8 ± 1.4%
- percentage of EdU-negative (MCF7; [5]): 23.7 ± 1.1%
- percentage of EdU-negative (MCF7; protein concentration 0.225 µM): 29.2 ± 0.53%

Sequence: MNRFLLLMSLYLLGSARGTSSQPNELSGSIDHQTSVQQLPGEFFSLENPSDAEALYETSSGLNTLSEHGSSEHGSSKHTVAEHTSGEHAESEHASGEPAATEHAEGEHTVGEQPSGEQPSGEHLSGEQPLSELESGEQPSDEQPSGEHGSGEQPSGEQASGEQPSGEHASGEQASGAPISSTSTGTILNCYTCAYMNDQGKCLRGEGTCITQNSQQCMLKKIFEGGKLQFMVQGCENMCPSMNLFSHGTRMQIICCRNQSFCNKI
- percentage of EdU-negative (hTERT-HMEC; [3]): 6.06 ± 0.83%
- percentage of EdU-negative (hTERT-HMEC; [4]): 9.78 ± 0.68%
- percentage of EdU-negative (MCF7; [3]): 24.76 ± 0.1%
- percentage of EdU-negative (MCF7; [4]): 27.1 ± 1.2%

Sequence: MNVLLGSVVIFATFVTLCNASCYFIPNEGVPGDSTRKCMDLKGNKHPINSEWQTDNCETCTCYETEISCCTLVSTPVGYDKDNCQRIFKKEDCKYIVVEKKDPKKTCSVSEWII
- percentage of EdU-negative (hTERT-HMEC; [5]): 5.28 ± 0.77%
- percentage of EdU-negative (hTERT-HMEC; protein concentration 0.225 µM): 5.95 ± 1.1%
- percentage of EdU-negative (MCF7; [5]): 25.8 ± 1.8%
- percentage of EdU-negative (MCF7; protein concentration 0.225 µM): 24.5 ± 0.81%

Sequence: MNWHLPLFLLASVTLPSICSHFNPLSLEELGSNTGIQVFNQIVKSRPHDNIVISPHGIASVLGMLQLGADGRTKKQLAMVMRYGVNGVGKILKKINKAIVSKKNKDIVTVANAVFVKNASEIEVPFVTRNKDVFQCEVRNVNFEDPASACDSINAWVKNETRDMIDNLLSPDLIDGVLTRLVLVNAVYFKGLWKSRFQPENTKKRTFVAADGKSYQVPMLAQLSVFRCGSTSAPNDLWYNFIELPYHGESISMLIALPTESSTPLSAIIPHISTKTIDSWMSIMVPKRVQVILPKFTAVAQTDLKEPLKVLGITDMFDSSKANFAKITTGSENLHVSHILQKAKIEVSEDGTKASAATTAILIARSSPPWFIVDRPFLFFIRHNPTGAVLFMGQINKP
- percentage of EdU-negative (hTERT-HMEC; [6]): 4.86 ± 0.67%
- percentage of EdU-negative (hTERT-HMEC; [7]): 9.81 ± 1%
- percentage of EdU-negative (MCF7; [6]): 26.98 ± 0.12%
- percentage of EdU-negative (MCF7; [7]): 27.93 ± 0.17%

Sequence: MPACRLGPLAAALLLSLLLFGFTLVSGTGAEKTGVCPELQADQNCTQECVSDSECADNLKCCSAGCATFCSLPNDKEGSCPQVNINFPQLGLCRDQCQVDSQCPGQMKCCRNGCGKVSCVTPNF
- percentage of EdU-negative (hTERT-HMEC; [8]): 4.52 ± 0.38%
- percentage of EdU-negative (hTERT-HMEC; [9]): 4.9 ± 0.49%
- percentage of EdU-negative (MCF7; [8]): 25.2 ± 0.76%
- percentage of EdU-negative (MCF7; [9]): 25.3 ± 0.99%

Sequence: MPAFNRLFPLASLVLIYWVSVCFPVCVEVPSETEAVQGNPMKLRCISCMKREEVEATTVVEWFYRPEGGKDFLIYEYRNGHQEVESPFQGRLQWNGSKDLQDVSITVLNVTLNDSGLYTCNVSREFEFEAHRPFVKTTRLIPLRVTEEAGEDFTSVVSEIMMYILLVFLTLWLLIEMIYCYRKVSKAEEAAQENASDYLAIPSENKENSAVPVEE [Q9NY72]
- percentage of EdU-negative (hTERT-HMEC; [10]): 4.7 ± 0.6%
- percentage of EdU-negative (hTERT-HMEC; [11]): 4.76 ± 0.95%
- percentage of EdU-negative (MCF7; [10]): 25.4 ± 0.68%
- percentage of EdU-negative (MCF7; [11]): 25.4 ± 1.8%

Sequence: MPAGRAARTCALLALCLLGAGAQDFGPTRFICTSVPVDADMCAASVAAGGAEELRSSVLQLRETVLQQKETILSQKETIRELTAKLGRCESQSTLDPGAGEARAGGGRKQPGSGKNTMGDLSRTPAAETLSQLGQTLQSLKTRLENLEQYSRLNSSSQTNSLKDLLQSKIDELERQVLSRVNTLEEGKGGPRNDTEERVKIETALTSLHQRISELEKGQKDNRPGDKFQLTFPLRTNYMYAKVKKSLPEMYAFTVCMWLKSSATPGVGTPFSYAVPGQANELVLIEWGNNPMEILINDKVAKLPFVINDGKWHHICVTWTTRDGVWEAYQDGTQGGSGENLAPYHPIKPQGVLVLGQEQDTLGGGFDATQAFVGELAHFNIWDRKLTPGEVYNLATCSTKALSGNVIAWAESHIEIYGGATKWTFEACRQIN
- percentage of EdU-negative (hTERT-HMEC; [12]): 5.12 ± 0.18%
- percentage of EdU-negative (hTERT-HMEC; [13]): 4.43 ± 0.47%
- percentage of EdU-negative (MCF7; [12]): 26.9 ± 2.1%
- percentage of EdU-negative (MCF7; [13]): 24.2 ± 4.3%
